According to US20240209061A1, “FUSION PROTEINS AND USES THEREOF” (Pfizer Inc., priority 2020, published 2024):

How the values were obtained:
[1] = AC-SINS self-interaction assay; format: physicochemical
Protocol: Variant CD80-Fc fusion proteins were assessed by measuring non-specific binding using a DNA- and insulin-binding ELISA (Avery et al., MAbs. 2018 February/March; 10(2): 244-255) and for self-interaction in an AC-SINS assay (affinity-capture self-interaction nanoparticle spectroscopy; Liu et al., 2014, mAbs 6:483-92). DNA- and insulin-binding scores were calculated as the signal ratio of the ELISA signal of the CD80-Fc fusion protein at 10 μg/ml to the ELISA signal in the absence of the Fc-fusion protein (buffer only). For the AC-SINS assay, proteins are captured by anti-human Fc antibodies coated on gold nanoparticles. […] The score ranges obtained from these in vitro assays correlate well with in vivo clearance using huFcRn transgenic (Tg32) mouse. Therapeutic proteins with high scores are at high risk for rapid clearance and unfavorable PK and therapeutics that score low are at low risk and favorable PK.

[2] = Thermal forced aggregation (SEC); format: physicochemical; conditions: 24 hours, PBS
Protocol: To assess the aggregation propensity of variant CD80-Fc fusion proteins, 1 mg/ml of CD80-Fc fusion protein was incubated in PBS at increasing temperatures for 24 hours. The samples were analyzed by SEC on an Agilent 1100 (Agilent Technologies, Germany) HPLC system using a YMC-Pack Diol-200 (YMC, Germany) analytical size exclusion chromatography column and PBS supplemented to 400 mM NaCl as running buffer. % aggregation was calculated from the loss of intact peak area. […] ND=Not Determined.

[3] = system: CT26 murine colorectal carcinoma tumor cells; assay: CT26 murine colorectal carcinoma model; format: in vivo, mouse; conditions: for Day 10 tumor volume: Days 0 and 3; for % tumor growth inhibition: Day 10; for # IFNγ-producing spots (tumor-reactive T cells in spleen): average of n = 4 mice
Protocol: CT26 murine colorectal carcinoma tumor cells (1×10^6) were subcutaneously implanted in the hind flank of female Balb/c mice. When tumors reached ˜100 mm3 (Day 8), mice were randomized. PBS vehicle control or variant CD80-Fc fusion proteins were dosed intravenously at 0.1 and 1.0 mg/kg on Days 0 and 3. Tumor volume was determined by caliper measurements obtained in 2 dimensions and calculated as width^2×length/2. Error bars are depicted as ±SEM.
IFNγ ELIspot was used to measure tumor-reactive T cells in the spleen in mice treated with CD80-Fc fusion proteins at a 1 mg/kg dose.
Cytotoxic CD8^+ T cells are responsible for killing cancer cells and the measurement of CD8^+ T cells that have infiltrated tumors commonly correlates with efficacy for immune-oncology therapies. For all in vivo studies, tumors were collected ˜1 week after the first dose and dissociated by mincing, followed by incubation in an enzymatic digestion cocktail and homogenization. The resulting cell suspension was filtered and washed, and single cells were stained with antibodies to CD45, CD8, and a viability dye to detect tumor-infiltrating lymphocytes (TILs) by flow cytometry. Data were acquired on a BD LSRFortessa flow cytometer or a Cytek Aurora spectral flow cytometer. Table 31 and FIG. 18 show the amount of tumor-infiltrating CD8+ T cells expressed as a percentage of total immune cells (CD45+). Each value is the average of n=4 mice per group. Treatment with all variant CD80-Fc fusion proteins led to increase in CD8+ TILs in various tumor models.

[4] = Viscosity (Anton Paar rheometer); format: physicochemical; conditions: 20 mM histidine, 8.5% sucrose, pH 5.8
Protocol: The viscosity of CD80-Fc fusion proteins was assessed at various concentrations. Lower viscosity is desired for subcutaneous administration, and providing optimal syringeability and minimal pain to patients. Viscosity was measured using an Anton Paar rheometer and a CP-25 measuring system at 150 rpm. The sample comprised CD80-Fc fusion proteins in 20 mM histidine and 8.5% sucrose at pH 5.8.

[5] = Pharmacokinetics in cynomolgus monkeys; format: in vivo; conditions: cynomolgus monkey
Protocol: PK of variant CD80-Fc fusion proteins was assessed in non-human primates. […] A ligand binding assay using the Gyrolab Immunoassay platform was used to quantitate CD80-Fc molecules in cynomolgus monkey serum following dose administration. CD80-Fc constructs were captured onto the Gyrolab Bioaffy CD using a biotinylated monoclonal anti-human CD80 antibody (Thermo Fisher Cat #13-0809-82). Bound CD80-Fc constructs were detected using a mouse anti-human Fc antibody (SouthernBiotech Cat #9040-01) that was labeled with Alexa Fluor 647. Sample concentrations were determined by interpolation from a calibration curve that were fit using a 5-parameter logistic regression model. The range of quantitation of the assay was 100-15000 ng/ml in 100% serum. […] AUC (Area Under the Curve); Cmax (Maximum Concentration observed); Tmax (Time of Maximum concentration observed)

For “CD80-D90Q-Fc: variant CD80 ECD (D90Q) fused to human IgG1 Fc”, the “AC-SINS Score” value ([1]; Table 6) was 0, the “% aggregation” value ([2]; Table 11, 40° C.) was 81.6% and the “% aggregation” value ([2]; Table 11, 45.3° C.) was 89.5%. For the same substance, the “% aggregation” value ([2]; Table 11, 49.4° C.) was 89.5%, the “Number of tumor regressions” value ([3]; 0.1 mg/kg) was 0/10 and the “Day 10 tumor volume” value ([3]; 0.1 mg/kg IV) was 728.3 mm^3. For the same substance, the “% tumor growth inhibition” value ([3]; 0.1 mg/kg) was 39.20%, the “Number of tumor regressions” value ([3]; 1 mg/kg) was 6/10 and the “Day 10 tumor volume” value ([3]; 1 mg/kg IV) was 295.8 mm^3. The “% tumor growth inhibition” value ([3]; 1 mg/kg) was 75.31%, the “# IFNγ-producing spots (tumor-reactive T cells in spleen)” value (“# IFNγ-producing spots” for short) ([3]; 1 mg/kg) was 341.6875 and the “CD8^+ T cell infiltrates (% CD45)” value ([3]; CT26, 1 mg/kg, n=4) was 27.4 % CD45.

With “CD80-K89D-D90K-T28V-T57V-Fc: non-cysteine stabilized variant CD80-Fc fusion protein (K89D, D90K, T28V, T57V)” the “AC-SINS Score” value ([1]; Table 7) was −1, the “% aggregation” value ([2]; Table 12, 40° C.) was 0.6% and the “% aggregation” value ([2]; Table 12, 45.3° C.) was 6.0%. The “% aggregation” value ([2]; Table 12, 49.4° C.) was 62.8%, the “% aggregation” value ([2]; Table 12, 54.9° C.) was 72.5% and the Viscosity ([4]; 92.7 mg/ml) was 12.1 cP. It also gave a Viscosity ([4]; 119 mg/ml) of 27.8 cP.

For “CD80-K89Q-D90Q-E23C-A26C-Fc: disulfide stabilized variant CD80-Fc fusion protein (K89Q, D90Q, E23C, A26C)”, the “AC-SINS Score” value ([1]; Table 6) was −1, the “% aggregation” value ([2]; Table 11, 54.9° C.) was 3.2% and the “% aggregation” value ([2]; Table 11, 59.1° C.) was 22.8%. For the same substance, the “% aggregation” value ([2]; Table 11, 64° C.) was 36.2%, the “% aggregation” value ([2]; Table 12, 40° C.) was 0.6% and the “% aggregation” value ([2]; Table 12, 45.3° C.) was 2.9%. For the same substance, the “% aggregation” value ([2]; Table 12, 49.4° C.) was 0.5%, the “% aggregation” value ([2]; Table 12, 54.9° C.) was 6.7% and the “% aggregation” value ([2]; Table 12, 59.1° C.) was 55.9%. The “% aggregation” value ([2]; Table 12, 64° C.) was 68.8%, the Viscosity ([4]; 107.0 mg/ml) was 9.878 cP and the Viscosity ([4]; 148.0 mg/ml) was 30.16 cP. For the same substance, the “Number of tumor regressions” value ([3]; 0.1 mg/kg) was 5/10, the “Day 10 tumor volume” value ([3]; 0.1 mg/kg IV) was 289.9 mm^3 and the “% tumor growth inhibition” value ([3]; 0.1 mg/kg) was 75.80%. The “Number of tumor regressions” value ([3]; 1 mg/kg) was 6/10, the “Day 10 tumor volume” value ([3]; 1 mg/kg IV) was 305.3 mm^3 and the “% tumor growth inhibition” value ([3]; 1 mg/kg) was 74.51%. For the same substance, the “# IFNγ-producing spots” value ([3]; 1 mg/kg) was 547.375, the AUC ([5]; 3 mpk IV) was 3680 µg·h/mL and the “AUC fold-increase over WT” value ([5]; 3 mpk IV) was 1.48. The Cmax ([5]; 3 mpk IV) was 107 µg/mL, the Tmax ([5]; 3 mpk IV) was 4.98 min and the AUC ([5]; 15 mpk IV) was 27800 µg·h/mL. The “AUC fold-increase over WT” value ([5]; 15 mpk IV) was 2.00, the Cmax ([5]; 15 mpk IV) was 627 µg/mL and the Tmax ([5]; 15 mpk IV) was 4.98 min. For the same substance, the AUC ([5]; 50 mpk IV) was 72200 µg·h/mL, the “AUC fold-increase over WT” value ([5]; 50 mpk IV) was 1.95 and the Cmax ([5]; 50 mpk IV) was 1790 µg/mL. For the same substance, the Tmax ([5]; 50 mpk IV) was 4.98 min.

For “CD80-K89Q-D90Q-Fc: variant CD80 ECD (K89Q, D90Q) fused to human IgG1 Fc”, the “AC-SINS Score” value ([1]; Table 6) was 0, the “% aggregation” value ([2]; Table 11, 40° C.) was 69.9% and the “% aggregation” value ([2]; Table 11, 45.3° C.) was 77.7%. For the same substance, the “% aggregation” value ([2]; Table 11, 49.4° C.) was 78.0%, the Viscosity ([4]; 93.5 mg/ml) was 32.8 cP and the Viscosity ([4]; 120.6 mg/ml) was 115.8 cP. The “Number of tumor regressions” value ([3]; 0.1 mg/kg) was 1/10, the “Day 10 tumor volume” value ([3]; 0.1 mg/kg IV) was 857.6 mm^3 and the “% tumor growth inhibition” value ([3]; 0.1 mg/kg) was 28.41%. The “Number of tumor regressions” value ([3]; 1 mg/kg) was 5/10, the “Day 10 tumor volume” value ([3]; 1 mg/kg IV) was 299.0 mm^3 and the “% tumor growth inhibition” value ([3]; 1 mg/kg) was 75.04%. For the same substance, the “# IFNγ-producing spots” value ([3]; 1 mg/kg) was 569.5, the AUC ([5]; 3 mpk IV) was 1230 µg·h/mL and the “AUC fold-increase over WT” value ([5]; 3 mpk IV) was 0.50. For the same substance, the Cmax ([5]; 3 mpk IV) was 89.4 µg/mL, the Tmax ([5]; 3 mpk IV) was 4.98 min and the AUC ([5]; 15 mpk IV) was 12100 µg·h/mL. The “AUC fold-increase over WT” value ([5]; 15 mpk IV) was 0.87, the Cmax ([5]; 15 mpk IV) was 570 µg/mL and the Tmax ([5]; 15 mpk IV) was 4.98 min. The AUC ([5]; 50 mpk IV) was 27300 µg·h/mL, the “AUC fold-increase over WT” value ([5]; 50 mpk IV) was 0.74 and the Cmax ([5]; 50 mpk IV) was 1420 µg/mL. For the same substance, the Tmax ([5]; 50 mpk IV) was 4.98 min.

In the case of “CD80-WT-Fc: wild-type human CD80 extracellular domain fused to human IgG1 Fc (C220S) [reference compound]”, the “AC-SINS Score” value ([1]; Table 6) is reported as 0, the “AC-SINS Score” value ([1]; Table 7) is reported as 0 and the “% aggregation” value ([2]; Table 11, 40° C.) is reported as 18.0%. For the same substance, the “% aggregation” value ([2]; Table 11, 45.3° C.) was 45.4%, the “% aggregation” value ([2]; Table 11, 49.4° C.) was 50.8% and the “% aggregation” value ([2]; Table 12, 40° C.) was 0.6%. The “% aggregation” value ([2]; Table 12, 45.3° C.) was 64.9%, the “% aggregation” value ([2]; Table 12, 49.4° C.) was 83.4% and the Viscosity ([4]; 101.65 mg/ml) was 35.7 cP. For the same substance, the Viscosity ([4]; 132.25 mg/ml) was 158.8 cP, the AUC ([5]; 3 mpk IV) was 2480 µg·h/mL and the Cmax ([5]; 3 mpk IV) was 90.7 µg/mL. It also gave a Tmax ([5]; 3 mpk IV) of 4.98 min, an AUC ([5]; 15 mpk IV) of 13900 µg·h/mL and a Cmax ([5]; 15 mpk IV) of 460 µg/mL. The Tmax ([5]; 15 mpk IV) was 4.98 min, the AUC ([5]; 50 mpk IV) was 37000 µg·h/mL and the Tmax ([5]; 50 mpk IV) was 4.98 min.
